Paper PMC5267525, “Sec3 promotes the initial binary t-SNARE complex assembly and membrane fusion” (Nature Communications, 2017)

B1: His6-Sso2 (cytosolic domain, a.a. 1–270) [yeast] / GST-tagged Sec9 C-terminal SNARE domain (a.a. 414–651) [yeast] (parent)
chain 1: MSNANPYENNNPYAENYEMQEDLNNAPTGHSDGSDDFVAFMNKINSINANLSRYENIINQIDAQHKDLLTQVSEEQEMELRRSLDDYISQATDLQYQLKADIKDAQRDGLHDSNKQAQAENCRQKFLKLIQDYRIIDSNYKEESKEQAKRQYTIIQPEATDEEVEAAINDVNGQQIFSQALLNANRRGEAKTALAEVQARHQELLKLEKTMAELTQLFNDMEELVIEQQENVDVIDKNVEDAQQDVEQGVGHTNKAVKSARKARKNKIRC
chain 2: EEARQQQEEDEAVDEIKQEIKFTKQSSVASTRNTLKMAQDAERAGMNTLGMLGHQSEQLNNVEGNLDLMKVQNKVADEKVAELKKLNRSILAVHVSNPFNSKRRRREREEQLKNRKIEEKLMREQTSQQLSQSTQRIEGAMNANNNISEVRERYQRKNVLEKAKRYQFENDEEDDEMELEIDRNLDQIQQVSNRLKKMALTTGKELDSQQKRLNNIEESTDDLDINLHMNTNRLAGIR

Variants of: B1
Assay: GST pull-down time course (SDS-PAGE, Coomassie blue staining, band quantification)
Details: with GST-tagged Sec9 C-terminal SNARE domain (a.a. 414–651) [yeast]; time point 5 min; parent: 0; read off a plot
For chain 1 MSNANPYENNNPYAENYEMQEDLNNAPTGHSDGSDDFVAFMNKINSINANLSRYENIINQIDAQHKDLLTQVSEEQEMELRRSLDDYISQATDLQYQLKADIKDAQRDGLHDSNKQAQAENCRQKFLKLIQDYRIIDSNYKEESKEQAKRQYTIIQPEATDEEVEAAINGSSGGQIFSQALLNANRRGEAKTALAEVQARHQELLKLEKTMAELTQLFNDMEELVIEQQENVDVIDKNVEDAQQDVEQGVGHTNKAVKSARKARKNKIRC [chain 1 D170G V171S N172S Q174G], the response was 34%.

Same assay, conditions: with GST-tagged Sec9 C-terminal SNARE domain (a.a. 414–651) [yeast]; time point 10 min; parent: 9; read off a plot
chain 1 MSNANPYENNNPYAENYEMQEDLNNAPTGHSDGSDDFVAFMNKINSINANLSRYENIINQIDAQHKDLLTQVSEEQEMELRRSLDDYISQATDLQYQLKADIKDAQRDGLHDSNKQAQAENCRQKFLKLIQDYRIIDSNYKEESKEQAKRQYTIIQPEATDEEVEAAINGSSGGQIFSQALLNANRRGEAKTALAEVQARHQELLKLEKTMAELTQLFNDMEELVIEQQENVDVIDKNVEDAQQDVEQGVGHTNKAVKSARKARKNKIRC [chain 1 D170G V171S N172S Q174G] was tested, and the response was 67%.

Same assay, conditions: with GST-tagged Sec9 C-terminal SNARE domain (a.a. 414–651) [yeast]; time point 20 min; parent: 32; read off a plot
For chain 1 MSNANPYENNNPYAENYEMQEDLNNAPTGHSDGSDDFVAFMNKINSINANLSRYENIINQIDAQHKDLLTQVSEEQEMELRRSLDDYISQATDLQYQLKADIKDAQRDGLHDSNKQAQAENCRQKFLKLIQDYRIIDSNYKEESKEQAKRQYTIIQPEATDEEVEAAINGSSGGQIFSQALLNANRRGEAKTALAEVQARHQELLKLEKTMAELTQLFNDMEELVIEQQENVDVIDKNVEDAQQDVEQGVGHTNKAVKSARKARKNKIRC [chain 1 D170G V171S N172S Q174G], the response was 79%.

Same assay, conditions: with GST-tagged Sec9 C-terminal SNARE domain (a.a. 414–651) [yeast]; time point 40 min; parent: 29; read off a plot
chain 1 MSNANPYENNNPYAENYEMQEDLNNAPTGHSDGSDDFVAFMNKINSINANLSRYENIINQIDAQHKDLLTQVSEEQEMELRRSLDDYISQATDLQYQLKADIKDAQRDGLHDSNKQAQAENCRQKFLKLIQDYRIIDSNYKEESKEQAKRQYTIIQPEATDEEVEAAINGSSGGQIFSQALLNANRRGEAKTALAEVQARHQELLKLEKTMAELTQLFNDMEELVIEQQENVDVIDKNVEDAQQDVEQGVGHTNKAVKSARKARKNKIRC [chain 1 D170G V171S N172S Q174G] showed a response of 100%.

Same assay, conditions: with GST-tagged Sec9 C-terminal SNARE domain (a.a. 414–651) [yeast]; time point 70 min; parent: 48; read off a plot
Work on chain 1 MSNANPYENNNPYAENYEMQEDLNNAPTGHSDGSDDFVAFMNKINSINANLSRYENIINQIDAQHKDLLTQVSEEQEMELRRSLDDYISQATDLQYQLKADIKDAQRDGLHDSNKQAQAENCRQKFLKLIQDYRIIDSNYKEESKEQAKRQYTIIQPEATDEEVEAAINGSSGGQIFSQALLNANRRGEAKTALAEVQARHQELLKLEKTMAELTQLFNDMEELVIEQQENVDVIDKNVEDAQQDVEQGVGHTNKAVKSARKARKNKIRC [chain 1 D170G V171S N172S Q174G] yielded a response of 92%.

Same assay, conditions: with GST-tagged Sec9 C-terminal SNARE domain (a.a. 414–651) [yeast]; time point 110 min; parent: 72; read off a plot
In the case of chain 1 MSNANPYENNNPYAENYEMQEDLNNAPTGHSDGSDDFVAFMNKINSINANLSRYENIINQIDAQHKDLLTQVSEEQEMELRRSLDDYISQATDLQYQLKADIKDAQRDGLHDSNKQAQAENCRQKFLKLIQDYRIIDSNYKEESKEQAKRQYTIIQPEATDEEVEAAINGSSGGQIFSQALLNANRRGEAKTALAEVQARHQELLKLEKTMAELTQLFNDMEELVIEQQENVDVIDKNVEDAQQDVEQGVGHTNKAVKSARKARKNKIRC [chain 1 D170G V171S N172S Q174G], the response is reported as 96%.

Same assay, conditions: with GST-tagged Sec9 C-terminal SNARE domain (a.a. 414–651) [yeast]; time point 170 min; read off a plot
Work on chain 1 MSNANPYENNNPYAENYEMQEDLNNAPTGHSDGSDDFVAFMNKINSINANLSRYENIINQIDAQHKDLLTQVSEEQEMELRRSLDDYISQATDLQYQLKADIKDAQRDGLHDSNKQAQAENCRQKFLKLIQDYRIIDSNYKEESKEQAKRQYTIIQPEATDEEVEAAINGSSGGQIFSQALLNANRRGEAKTALAEVQARHQELLKLEKTMAELTQLFNDMEELVIEQQENVDVIDKNVEDAQQDVEQGVGHTNKAVKSARKARKNKIRC [chain 1 D170G V171S N172S Q174G] yielded a response of 96%.

Same assay, conditions: with GST-tagged Sec9 C-terminal SNARE domain (a.a. 414–651) [yeast]; time point 240 min; parent: 100; read off a plot
chain 1 MSNANPYENNNPYAENYEMQEDLNNAPTGHSDGSDDFVAFMNKINSINANLSRYENIINQIDAQHKDLLTQVSEEQEMELRRSLDDYISQATDLQYQLKADIKDAQRDGLHDSNKQAQAENCRQKFLKLIQDYRIIDSNYKEESKEQAKRQYTIIQPEATDEEVEAAINGSSGGQIFSQALLNANRRGEAKTALAEVQARHQELLKLEKTMAELTQLFNDMEELVIEQQENVDVIDKNVEDAQQDVEQGVGHTNKAVKSARKARKNKIRC [chain 1 D170G V171S N172S Q174G] was tested, and the response was 100%.
